B1: YIR003W (protein, UniProt P40563 1-679, looked up)
Altered inheritance of …: MPSEVTPKVPERPSRRKTSELFPLSGSESGDIKANSEPPTPAGTPNVPTRRPILKAKTMTSFESGMDQESLPKVPLQRPVRRSTTEELNNVMNNTSKELEEIESLISKHNIHNVSRKKSPTSVEEGKVAAIHQNGQRSASDNKTSTNPSPLEKNEHEGAEGNESAISPSNLVNKSNNEVTEHSDSEDLTEKQKVHAALDNEAGDRSHFEEKLIPGDMKVQVDVSKDVEEGSLNALPPSGITESDDKAEKFTKHPESSLEELQKHQEQQEEKIFQNPTDEESTTSLNEKQEGKDNMEVNSQPQGPSDTETVIAATSSNVPSQIASEEENDVPVIPRSRPKKDFEAHVQKEELPNTQEKRVSEECDSTLISTEEESKIPKIPSERPKRRAPPPVPKKPSSRIAAFQEMLQKQQQQDLHNNGNSSATTASADIAKKHTDSSITSDTTKADFTSKLNGLFALPGMVNPGQLPPSLEKKLSSPDTESKLGPQDQSQAKTGPLGGTRRGRGPRGRKLPSKVASVEKIEEDDNTNKIEIFNNWNVSSSFSKEKVLIDTTPGEQAERALDEKSKSIPEEQREQSPNKMEAALCPFELDEKEKLPANAESDPLSQLPQTNAVGNRKAISEESLSPSEAIANRDQNDTTEIQEQQMEDQMEVDMERELSGGYEDVDSALHSEEASFHSL
B2: YFL010C (protein, UniProt P43582 1-211, looked up)
WW domain-containing protein …: MAQSKSNPPQVPSGWKAVFDDEYQTWYYVDLSTNSSQWEPPRGTTWPRPKGPPPGVNNEKSSRQQADQAPPPYSSQSTPQVQAGAQAQQPRYYQPQQPQYPQYPQQQRYYPQQAPMPAAAPQQAYYGTAPSTSKGSGHGGAMMGGLLGVGAGLLGGAMLEHAFDDHNYDGPDTVVVENNYYGDDAGGSDGGFDDAGGFDGGFDDGFDGSDF
B3: YLR196W (protein, UniProt P21304 1-576, looked up)
Periodic tryptophan protein 1: MISATNWVPRGFSSEFPEKYVLDDEEVERINQLAQLNLDDAKATLEEAEGESGVEDDAATGSSNKLKDQLDIDDDLKEYNLEEYDDEEIADNEGGKDVSMFPGLSNDSDVKFHEGEKGEDPYISLPNQEDSQEEKQELQVYPSDNLVLAARTEDDVSYLDIYVYDDGAGFHSSDIPVEEGDEADPDVARGLVRDPALYVHHDLMLPAFPLCVEWLDYKVGSNSEEAANYAAIGTFDPQIEIWNLDCVDKAFPDMILGEPLDNSMVSLKSKKKKKKSKTGHITTHHTDAVLSMAHNKYFRSVLASTSADHTVKLWDLNSGNAARSLASIHSNKNVSSSEWHMLNGSILLTGGYDSRVALTDVRISDESQMSKYWSAMAGEEIETVTFASENIILCGTDSGNVYSFDIRNNENRKPVWTLKAHDAGISTLCSNKFIPGMMSTGAMGEKTVKLWKFPLDDATNTKGPSMVLSRDFDVGNVLTSSFAPDIEVAGTMVIGGVNKVLKLWDVFTNRSVRKSFKSELENVQARAKEEAQKIGKSSRIARKYTSNDNPDTVITIDDQGEDEEEREGGDEHDDMA
B4: Boi1 (protein, UniProt P38041 1-980, looked up)
BEM1-interacting protein 1: MSLEGNTLGKGAKSFPLYIAVNQYSKRMEDELNMKPGDKIKVITDDGEYNDGWYYGRNLRTKEEGLYPAVFTKRIAIEKPENLHKSPTQESGNSGVKYGNLNDSASNIGKVSSHQQENRYTSLKSTMSDIDKALEELRSGSVEQEVSKSPTRVPEVSTPQLQDEQTLIQEKTRNEENTTHDSLFSSTADLNLSSESLKNISKSNISTKSLEPSSESVRQLDLKMAKSWSPEEVTDYFSLVGFDQSTCNKFKEHQVSGKILLELELEHLKELEINSFGIRFQIFKEIRNIKSAIDSSSNKLDADYSTFAFENQAAQLMPAATVNRDEIQQQISSKCNKLSSESSDRKSSSVTTELQRPSSVVVNPNFKLHDPAEQILDMTEVPNLFADKDIFESPGRAPKPPSYPSPVQPPQSPSFNNRYTNNNARFPPQTTYPPKNKNPTVYSNGLIPNSSTSSDNSTGKFKFPAMNGHDSNSRKTTLTSATIPSINTVNTDESLPAISNISSNATSHHPNRNSVVYNNHKRTESGSSFVDLFNRISMLSPVKSSFDEEETKQPSKASRAVFDSARRKSSYGHSRDASLSEMKKHRRNSSILSFFSSKSQSNPTSPTKQTFTIDPAKMTSHSRSQSNSYSHARSQSYSHSRKHSLVTSPLKTSLSPINSKSNIALAHSETPTSSNNKEAVSQPSEGKHKHKHKHKSKHKHKNSSSKDGSSEEKSKKKLFSSTKESFVGSKEFKRSPSELTQKSTKSILPRSNAKKQQTSAFTEGIRSITAKESMQTADCSGWMSKKGTGAMGTWKQRFFTLHGTRLSYFTNTNDEKERGLIDITAHRVLPASDDDRLISLYAASLGKGKYCFKLVPPQPGSKKGLTFTEPRVHYFAVENKSEMKAWLSAIIKATIDIDTSVPVISSYATPTIPLSKAQTLLEEARLQTQLRDAEEEEGRDQFGWDDTQNKRNSNYPIEQDQFETSDYLESSAFEYPGGRL
B5: YOR042W (protein, UniProt Q08412 1-411, looked up)
Ubiquitin-binding protein CUE5: MEEKEGIKDSSLLEKSNVPESINEDISKTTDVDLNSDGKKDNDTSAKDGTPKVEEKVNKSSGIDEDEVVTPAEDAKEEEEEHPPLPARRKSEEEPSKENPILQELKDAFPNLEEKYIKAVIIASQGVLSPAFNALLFLSDPESGKDIELPTQPVRKNPEAPARRRQTQLEQDELLARQLDEQFNSSHSRRRNRDRATRSMHEQRRRRHNPNEREQHHEDSEEEDSWSQFVEKDLPELTDRAGRSLQDTANKVSNWISDAYRRNFASGNEQNDNQHGHQDQQEWEPEIVDLSQGGKNSRPQQPERRRFNSFGVQVGDDSLESHGITLHNEDGFEDDEDVPPQLPTRTKSGESTGKVVAETTYIDTPDTETKKKWQPLPPEPLDTTPTKVNAVSRNKKNPDEDEFLINSDDEM

Key:
Assay type in all cases: cell-based, Saccharomyces cerevisiae
[1] = test system: 575 putative partners (preys) of 22 WT SH3-containing proteins; experiment: DHFR-PCA on solid medium, WT and SH3-deleted baits (Fig. 1B); set-up: key to Score: 0: SH3-independent; 1: SH3-dependent PPIs; 2: SH3-inhibited PPIs; details: for medrep (log2 median colony size normalized to plate background, PCA score): label = prey; for Ratio (SH3-deleted/WT medrep): only significant differences shown, PPIs completely lost have a ratio of 0.1, gained PPIs 2.5
Summary of the method: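 In S. cerevisiae, 22 SH3-containing baits fused genomically to DHFR F[1,2], either WT or with each SH3 replaced via CRISPR by a poly-Gly/Ser linker, screened against 575 DHFR F[3] preys plus 40 negative controls in 1536 arrays, preys duplicated at randomized positions.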

[2] = test system: ABP1; experiment: DHFR-PCA on solid medium, bait ABP1 (Fig. 1B); details: bait ABP1, label = prey; 2-4 replicates
Excerpt: (§1) Supplement 41467_2021_21873_MOESM8_ESM.xlsx, sheet "Fig1B" | column: medsize; medrep; Ratio; Score

[3] = test system: BBC1; experiment: DHFR-PCA on solid medium, bait BBC1 (Fig. 1B); details: bait BBC1, label = prey; for medrep (log2 median colony size normalized to plate background, PCA score): 2-4 replicates; for Ratio (SH3-deleted/WT medrep): only significant differences showed, PPIs completely lost have a ratio of 0.1 and the gained PPIs 2.5
Excerpt: as §1

[4] = test system: Abp1 PPIs; experiment: DHFR-PCA of Abp1 SH3-swapped baits (Fig. 2B-D, S2C, S2F); details: number of interactions of Abp1 carrying the named SH3; sheet FigS2A-B
Summary of the method: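 Yeast DHFR-PCA in which Abp1 baits, carrying their SH3 replaced by CRISPR–Cas9 with one of 27 yeast SH3s or human CTTN, HCLS1 or DBNL SH3s, were mated against 575 SH3-associated DHFR F[3] preys plus 40 negative controls. Four tests were run per PPI. Diploids were selected twice (48 h, 30 °C), then grown 4 days on PCA selection media.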

[5] = test system: Abp1 (1xFLAG); experiment: Western blot expression level of Abp1 SH3-swapped baits (Fig. S2A-B); set-up: Flag (2 bands): unit not given here; details: sheet FigS2A-B
Summary of the method: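 Yeast expressing DHFR F[1,2]-FLAG-tagged baits grown in synthetic complete medium at 30 °C to OD600 ~1.0, lysed with glass beads in Tris pH 7.4/150 mM NaCl/1% Triton X-100. Baits immunoprecipitated on FLAG-M2 beads 120 min at 4 °C, resolved on 10% SDS-PAGE, probed with anti-FLAG HRP (ECL), signals quantified by imager.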

[6] = bait SLA1-2, DHFR-PCA, Replicates 4 (2 for YCR009C, YDR388W)
[7] = bait SLA1-3, DHFR-PCA, Replicates 4 (2 for YCR009C, YDR388W, YIL033C)

Row | Molecule | medrep (log2 median colony size normalized to plate background, PCA score) [1, 6] | Score ([1]; bait SLA1-2, label = prey) | Ratio (SH3-deleted/WT medrep) ([1]; bait SLA1-2, label = prey) | medrep (log2 median colony size normalized to plate background, PCA score) [1, 7] | Score ([1]; bait SLA1-3, label = prey) | medrep (log2 median colony size normalized to plate background, PCA score) [2] | medrep (log2 median colony size normalized to plate background, PCA score) [3] | Ratio (SH3-deleted/WT medrep) [3] | Interactions in Abp1 [4] | Ratio Swap/WT Flag ([5]; Flag signal relative to Abp1 WT (Abp1-1 to Abp1-4 = 1)) | Flag (2 bands) ([5]; Western blot Flag signal (2 bands), Abp1 WT, SH3-deleted or SH3-swapped)
1 | B1 | 2.274 | 1 | 0.1 | 2.274 | 0 | 4.768 | 5.119 | – | – | – | –
2 | B2 | – | – | – | – | – | 2.163 | 1.4009 | 0.1 | – | – | –
3 | B3 | – | – | – | – | – | 3.732 | 2.428 | 0.1 | – | – | –
4 | B4 | – | – | – | – | – | – | – | – | 70 | 0.615 | 59532
5 | B5 | 2.528 | 1 | 0.1 | 2.528 | 0 | 4.057 | 1.718 | 0.1 | – | – | –
